The text below walks through data of publication doi:10.1101/2025.04.13.648610, “Catalytic Mechanism and Differential Alarmone Regulation of a Conserved Stringent Nucleosidase” (bioRxiv, 2025).

The term stoichiometry N denotes a count of units in the complex or per binding partner.

Data set [1] concerns the molecule itself. Nature of the data set: crystal structure; wt PpnN co-crystallised with pppGpp (3:4 PpnN; pppGpp on three of four subunits; R5P and guanine in the active sites); 6-8 mg/ml PpnN, 1-2 mM ligand.
Data set [2] deals with the molecule itself. Nature of the data set: SEC; Superdex 200 10/300 GL in 50 mM Tris-HCl pH 7.5, 200 mM NaCl, 5% glycerol, 5 mM BME; elution profiles of variants compared with wt PpnN. In general terms: In gel filtration, larger molecules generally elute earlier.
Data set [3] concerns the molecule itself. Description: crystal structure; PpnN E264A co-crystallised with pppGpp and 2 mM GMP (E264A 4:4 PpnN; four pppGpp and four R5P bound); 6-8 mg/ml PpnN; 3.5 Å.

Positions count from the first letter of the chain named. In names and notes the source's numbering stands.

B1: PpnN (wild type), nucleosidase of Escherichia coli (enzyme, UniProt P0ADR8 1-454, looked up)
chain: MITHISPLGSMDMLSQLEVDMLKRTASSDLYQLFRNCSLAVLNSGSLTDNSKELLSRFENFDINVLRRERGVKLELINPPEEAFVDGRIIRALQANLFAVLRDILFVYGQIHNTVRFPNLNLDNSVHITNLVFSILRNARALHVGEAPNMVVCWGGHSINENEYLYARRVGNQLGLRELNICTGCGPGAMEAPMKGAAVGHAQQRYKDSRFIGMTEPSIIAAEPPNPLVNELIIMPDIEKRLEAFVRIAHGIIIFPGGVGTAEELLYLLGILMNPANKDQVLPLILTGPKESADYFRVLDEFVVHTLGENARRHYRIIIDDAAEVARQMKKSMPLVKENRRDTGDAYSFNWSMRIAPDLQMPFEPSHENMANLKLYPDQPVEVLAADLRRAFSGIVAGNVKEVGIRAIEEFGPYKINGDKEIMRRMDDLLQGFVAQHRMKLPGSAYIPCYEICT
notes: PpnN (previously YgdH), nucleosidase, Escherichia coli; PAG1 domain 1-150, catalytic domain 151-329, PAG2 domain 330-454; also called wt PpnN; PpnNwt; source: E. coli BL21 (DE3) ΔppnN (ppnN::kan), purified (Ni-NTA, Superdex 200 for biochemistry; HisTrap, SourceQ, Superdex 200 Increase for crystallisation); not shown: His6, N-terminal, kept
Consider B1, for which the “stoichiometry N” value in data set [1] was determined as 4.

B2: PpnN R241A (enzyme, Escherichia coli, UniProt P0ADR8 1-454, looked up)
chain: B1 chain with R241A
notes: PpnN (previously YgdH), nucleosidase, Escherichia coli, with R241A; Made by quick-change mutagenesis on pCA24N-ppnN (wt); also called R241A variant; source: E. coli BL21 (DE3) ΔppnN, purified (Ni-NTA, Superdex 200)
Consider B2, for which the “stoichiometry N” value in data set [2] is 4.

B3: PpnN E264A (enzyme, Escherichia coli, UniProt P0ADR8 1-454, looked up)
chain: B1 chain with E264A
notes: PpnN (previously YgdH), nucleosidase, Escherichia coli, with E264A; Made by quick-change mutagenesis on pCA24N-ppnN (wt); also called E264A 4:4 PpnN; E264A variant; source: E. coli BL21 (DE3) ΔppnN (ppnN::kan), purified (Ni-NTA, Superdex 200 for biochemistry; HisTrap, SourceQ, Superdex 200 Increase for crystallisation)
As to B3, in data set [3], the “stoichiometry N” value is 4.

B4: PpnN H157A (enzyme, Escherichia coli, UniProt P0ADR8 1-454, looked up)
chain: B1 chain with H157A
notes: PpnN (previously YgdH), nucleosidase, Escherichia coli, with H157A; Made by quick-change mutagenesis on pCA24N-ppnN (wt); also called H157A variant; source: E. coli BL21 (DE3) ΔppnN, purified (Ni-NTA, Superdex 200)
For the protein B4, in data set [2], the “stoichiometry N” value stood at 4.

B5: PpnN T261A (enzyme, Escherichia coli, UniProt P0ADR8 1-454, looked up)
chain: B1 chain with T261A
notes: PpnN (previously YgdH), nucleosidase, Escherichia coli, with T261A; Made by quick-change mutagenesis on pCA24N-ppnN (wt); also called T261A variant; source: E. coli BL21 (DE3) ΔppnN, purified (Ni-NTA, Superdex 200)
Take B5: the “stoichiometry N” value in data set [2] stood at 4.

B6: PpnN K195A (enzyme, Escherichia coli, UniProt P0ADR8 1-454, looked up)
chain: B1 chain with K195A
notes: PpnN (previously YgdH), nucleosidase, Escherichia coli, with K195A; Made by quick-change mutagenesis on pCA24N-ppnN (wt); source: E. coli BL21 (DE3) ΔppnN, purified (Ni-NTA, Superdex 200)
In the case of B6, in data set [2], the “stoichiometry N” value was determined as 4.

B7: PpnN E223A (enzyme, Escherichia coli, UniProt P0ADR8 1-454, looked up)
chain: B1 chain with E223A
notes: PpnN (previously YgdH), nucleosidase, Escherichia coli, with E223A; Made by quick-change mutagenesis on pCA24N-ppnN (wt); also called E223A variant; source: E. coli BL21 (DE3) ΔppnN, purified (Ni-NTA, Superdex 200)
Turning to B7, the “stoichiometry N” value in data set [2] was 4.

B8: PpnN E263A (enzyme, Escherichia coli, UniProt P0ADR8 1-454, looked up)
chain: B1 chain with E263A
notes: PpnN (previously YgdH), nucleosidase, Escherichia coli, with E263A; Made by quick-change mutagenesis on pCA24N-ppnN (wt); also called E263A variant; source: E. coli BL21 (DE3) ΔppnN, purified (Ni-NTA, Superdex 200)
Take B8: in data set [2], the “stoichiometry N” value amounted to 4.

B9: PpnN M190A (enzyme, Escherichia coli, UniProt P0ADR8 1-454, looked up)
chain: B1 chain with M190A
notes: PpnN (previously YgdH), nucleosidase, Escherichia coli, with M190A; Made by quick-change mutagenesis on pCA24N-ppnN (wt); also called M190A variant; source: E. coli BL21 (DE3) ΔppnN, purified (Ni-NTA, Superdex 200)
B9: the “stoichiometry N” value in data set [2] is 4.

B10: PpnN D49A (enzyme, Escherichia coli, UniProt P0ADR8 1-454, looked up)
chain: B1 chain with D49A
notes: PpnN (previously YgdH), nucleosidase, Escherichia coli, with D49A; Made by quick-change mutagenesis on pCA24N-ppnN (wt); source: E. coli BL21 (DE3) ΔppnN, purified (Ni-NTA, Superdex 200)
In the case of B10, the “stoichiometry N” value in data set [2] worked out at 4.
